Results from the supplement of paper PMC10724198.
± gives the standard deviation of the averaged measurements.

What follows are sequences tested on Saccharomyces cerevisiae (assay: protein stability index of tFT-peptide fusion (C-terminal peptide) (PSI (0-1 scale)); higher = more stable (slower turnover)). Details: genetic background: wild type; temperature: 30 C.
Protocol: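 Multiplexed protein stability (MPS) profiling in S. cerevisiae. Random 12-aa peptides (tFT-X12 library) are fused to the C-terminus of a sfGFP-mCherry tandem fluorescent timer, after mCherry and a GGGS linker. Cells are FACS-sorted into 8 mCherry/sfGFP bins and deep-sequenced. The protein stability index (PSI) is the read-weighted bin average, scaled from 0 (unstable) to 1 (stable). Only peptides with >10 reads are reported; cells were grown at 30 °C in SC-His with glucose.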
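Note: PSI is a weighted mean of sequencing reads over stability bins, variants kept only with over 10 reads, mCherry proximal and sfGFP distal, peptide attached via GGGS linker.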

Sequence | protein stability index
GSHRSTWGLVPL | 0.696 ± 0.067
GSLCAVWWCWRG | 0.6372 ± 0.0052
GSLRLASAHGLV | 0.729 ± 0.02
GSPMRKHVTLLP | 0.808 ± 0.12
GSPPHTLPLHGR | 0.67 ± 0.03
GSRCSEAQDRSD | 0.713 ± 0.015
GSRFCPHVGICI | 0.657 ± 0.019
GSSPLLFSLLES | 0.751 ± 0.076
GSSRMACYCKHS | 0.644 ± 0.051
GSSSSLDVFVVF | 0.699 ± 0.085
GSTLGGMAWGAR | 0.682 ± 0.014
GSTLWGMAWGAR | 0.694 ± 0.017
GSTRWGSAEGRG | 0.662 ± 0.21
GSVCCLSLHCFV | 0.62 ± 0.033
GSYIPSPKKNKC | 0.7086 ± 0.0029
GSYRSSPFKDPK | 0.686 ± 0.037
GTDEWKRKYNTP | 0.695 ± 0.045
GTDSFQTTRRLI | 0.663 ± 0.022
GTGPPPSPPSLP | 0.683 ± 0.091
GTHFRPAREERV | 0.708 ± 0.039
GTHGQAQRVAGQ | 0.7248 ± 0.0061
GTIEFNKIEDFW | 0.715 ± 0.039
GTLAAGGGVPMS | 0.734 ± 0.034
GTLARFLTHFNP | 0.666 ± 0.048
GTLRLLYLKTSK | 0.651 ± 0.009
GTLSLAACLSEN | 0.657 ± 0.077

Sequence | protein stability index
GTRAVSKLNPDA | 0.701 ± 0.02
GTRRHSFCSGTG | 0.703 ± 0.054
GTSERKVLNRKR | 0.764 ± 0.015
GTSVGVRRKGVK | 0.708 ± 0.033
GTTLDEPGESGR | 0.621 ± 0.023
GVAAGPAVRVLT | 0.669 ± 0.032
GVAGGLLLRGGR | 0.673 ± 0.13
GVAYSIVKKKKK | 0.684 ± 0.036
GVCTGSFVFYLT | 0.686 ± 0.016
GVEAGMGRTLWL | 0.792 ± 0.099
GVEGAVGGRRGA | 0.703 ± 0.029
GVEGLGAFVTVQ | 0.702 ± 0.0089
GVENAHLFYLYL | 0.63579 ± 0.00058
GVEVCEGDGPLK | 0.669 ± 0.015
GVGGGSSWVGYG | 0.912 ± 0.063
GVGGGVRLVVSR | 0.633 ± 0.052
GVGGRVRDALGM | 0.68 ± 0.066
GVGLIGVLTCGL | 0.636 ± 0.02
GVGLVLLGVVSG | 0.513 ± 0.025
GVGRGCVLNGGG | 0.743 ± 0.018
GVGVWQWERGRG | 0.789 ± 0.1
GVICALPPVVGR | 0.685 ± 0.071
GVLGCNDGSVVE | 0.663 ± 0.059
GVLRPVWVLGGS | 0.624 ± 0.017
GVLSLFLLDTSQ | 0.7376 ± 0.0061
GVLVESGSVESR | 0.744 ± 0.12

Sequence | protein stability index
GVPALLVGIDLV | 0.668 ± 0.027
GVPFSLGPPPSR | 0.669 ± 0.022
GVPVVCGPPPFL | 0.748 ± 0.091
GVQEGGGGARGG | 0.633 ± 0.023
GVRAPPSPVSGL | 0.6711 ± 0.0066
GVRGGGAVGGLR | 0.65 ± 0.056
GVRHPRLMFSRS | 0.687 ± 0.02
GVRIGYCIVRDV | 0.647 ± 0.022
GVRIVRRGLRRV | 0.731 ± 0.013
GVRKGEESGVGW | 0.717 ± 0.0085
GVSAGGAGLGGS | 0.773 ± 0.0031
GVSAGLRGGGGA | 0.651 ± 0.022
GVSHKKGCPWLG | 0.641 ± 0.043
GVSKALAAAVDA | 0.6874 ± 0.0061
GVSVSPVVHFFL | 0.73 ± 0.062
GVSWVGGRVFGG | 0.6964 ± 0.0051
GVVGGGVQGGMG | 0.624 ± 0.0046
GVVRTSWGEALR | 0.7065 ± 0.0061
GVVRWGRVVGCF | 0.631 ± 0.084
GVWQGVGVRGWG | 0.83 ± 0.096
GWCALGVRAILY | 0.651 ± 0.0097
GWCRVFLNFLMW | 0.61142 ± 0.00012
GWCVGHSVLVVE | 0.618 ± 0.021
GWGCARRRGGRV | 0.683 ± 0.015
GWGGEGQNGSEG | 0.638 ± 0.019
GWGGFQFECGWV | 0.651 ± 0.059

Sequence | protein stability index
GWGGGSMDLRDR | 0.702 ± 0.011
GWGGSIGEEWGG | 0.687 ± 0.022
GWGPWGRVGRGG | 0.688 ± 0.032
GWLGGGGVVWWG | 0.718 ± 0.017
GWMLGAVRRGVI | 0.694 ± 0.032
GWMSGTPEFLGS | 0.707 ± 0.025
GWPVSICGSTQN | 0.754 ± 0.058
GWQLWGFCLSGP | 0.637 ± 0.032
GWRGGGSDGGLR | 0.718 ± 0.086
GWSCRGVGGGLG | 0.708 ± 0.045
GWVGGCGCGRGI | 0.694 ± 0.034
GWVRCGGGAGVG | 0.622 ± 0.056
GWVWILGRGRGR | 0.637 ± 0.044
GWWGGCRSGVPE | 0.672 ± 0.069
GYADDEEEYVTL | 0.737 ± 0.023
GYETTQSGFLSS | 0.5887 ± 0.0022
GYLVPLPSSGSS | 0.661 ± 0.057
GYNTSMHVQYQT | 0.764 ± 0.02
GYSFWSCVAFFS | 0.628 ± 0.0068
GYSPLHPILLGL | 0.577 ± 0.013
HAEREDTESQTR | 0.714 ± 0.05
HAKVFLMGCSYV | 0.692 ± 0.072
HALSVDPAFKQS | 0.66 ± 0.05
HATPPPLPSPPL | 0.71976 ± 0.0003
HCLLPLTTRRGR | 0.7 ± 0.026
HDAKIGTSTCWV | 0.654 ± 0.024

Sequence | protein stability index
HDGPYPALLATK | 0.606 ± 0.069
HDHRTLMRQPTR | 0.697 ± 0.037
HDMTGARKTHIA | 0.676 ± 0.023
HDRIHWDLDLSE | 0.617 ± 0.041
HEGHVWGIRGTG | 0.683 ± 0.11
HEKTGNNHKRGH | 0.628 ± 0.19
HERPVVLYGCTS | 0.637 ± 0.02
HFIDFVVVSFSI | 0.548 ± 0.095
HFSLCSNRSNPP | 0.646 ± 0.015
HFSTSFYSSAFR | 0.631 ± 0.026
HGAEAWPDVGPG | 0.639 ± 0.021
HGGEPHPSFGFS | 0.697 ± 0.062
HGIGRDTSEHGR | 0.645 ± 0.025
HGLGSWGTFLGV | 0.655 ± 0.021
HGPGGFRAGTGE | 0.724 ± 0.027
HGRSGGGKGAER | 0.674 ± 0.038
HGSDLSILRIEI | 0.722 ± 0.07
HHCGGRVLGAGG | 0.7073 ± 0.0056
HHPTTQRLSVIH | 0.742 ± 0.042
HHRRRRTTDVSL | 0.75 ± 0.049
HIEGRKHKDVAM | 0.668 ± 0.062
HKVETHQIIQIK | 0.726 ± 0.043
HLFAISGGKERI | 0.6966 ± 0.0039
HLFVCGNGVSAT | 0.684 ± 0.029
HLGHPSSRPSCL | 0.72 ± 0.057
HLGQPRPSCPLF | 0.662 ± 0.088

Sequence | protein stability index
HLLLLDLTRPIL | 0.745 ± 0.061
HLLRGSSPDRYV | 0.737 ± 0.019
HLRIAHTPDSPR | 0.703 ± 0.0082
HLSSPPSLLPPP | 0.657 ± 0.05
HLSWFSPFFASG | 0.772 ± 0.018
HLVPYVVKHLVP | 0.6785 ± 0.0062
HLWAPRQNTIRY | 0.649 ± 0.091
HMRPSTRLMPAG | 0.593 ± 0.01
HNGYLKRIKISR | 0.707 ± 0.085
HNSRTVPISVSV | 0.528 ± 0.038
HNVLVYCGCALG | 0.6032 ± 0.0036
HPAALTPVPALH | 0.661 ± 0.036
HPFSLGSLVASW | 0.6412 ± 0.0027
HPISLSYPSPFV | 0.665 ± 0.13
HPPAFSAKTFPS | 0.683 ± 0.043
HPPPPRLPPRPP | 0.63 ± 0.02
HPPRPPPRSPPP | 0.656 ± 0.1
HPPSLPPLPPPL | 0.727 ± 0.054
HPPSPPSRVSPS | 0.594 ± 0.032
HPPTCTTVLPTL | 0.579 ± 0.023
HPTDPPFRNTTA | 0.6996 ± 0.0043
HPTLPSLQVSPS | 0.689 ± 0.031
HQLSQYEGARTL | 0.733 ± 0.064
HQRIKLMPEVWS | 0.689 ± 0.056
HRAPACEHDIKK | 0.705 ± 0.015
